Test: yeast display, Sf9 membrane polyspecificity reagent, FACS + sequencing; frameworks hold sequencing errors
Summary of the method: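 A synthetic nanobody library was expressed on Saccharomyces cerevisiae BJ5465 by galactose induction for 36–48 hours. The library was stained for 1 hour at 4 °C with 10% biotinylated, detergent-solubilized Sf9 membrane reagent and enriched with streptavidin microbeads before FACS. Low and high (top ~1%) gates were set on anti-HA fluorescence for expression and streptavidin fluorescence for reagent binding, and each polyreactivity label reflects the gate of origin.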

Sequence	polyreactivity (PSR sort gate)
QVQLVESGGGLVQAGGSLRLSCAASGRIFRVNAMGWYRQAPGKERELVAAISRRGGRTYYADSVKGRFTISRDNAKNTVYLQMNSMKPEDTAVYYCNADSVTSAGSLGRAEYGYWVQGTQVTVSS	high polyreactivity
QDQLVESGGGLVQAGGSLRLSCAASGGIFFYYVMGWYRKAPGKEREFVAAITSGGSTYYADSVKGRFTISGDNAKNTVYLQMNRLKPEDTAVYYCNARDVVDYSVWSRYAYDYWGQGTQVTVSS	low polyreactivity
QVQLGESGGGLVQAGGSLSLSCAASGNTFVSNAMGWYRQATGKERELVATISSGAHTYYADSVKGRFTISRDNAKNTVYLQMKSLKPEDTAVYYCASTSYGYWVGYIPEVDFWGQGTQVSVSS	low polyreactivity
QVQLVESAGGLVQAGGSLRLSCAASGSTQVIYHMGWNRQAPGNERYIVAAITYGGGRTYYADSVKGRFTISSDNAKNTVYLQMNSLKPEDTAYYYCAAYSYYYTWNPGYWGQGTQVTVSS	high polyreactivity
QVQLVESGGCLVQAGGSLRLSCAASGFIFSEYAMGWYRQAPGKERELVVAIDVGGGSTYYADSVKGRFTISRDNAKNTVYLQMNSLKPEDTAVYYCAATQYGYWVPYQGFDYWGLGTQVTVSS	low polyreactivity
QFHLVESGGGLVQAGGSLRLSCAASGSNILYYVMGWYRQAPRKERELVAAITWDGGSTYYADSVKGRFTISRDNAKNTVYLELNSLIPEDTAVYYCNKVTTYSYYTEPYEYWGQGTQVTVSS	low polyreactivity
QVQHEESAGGLVQAGGSLRLSCAASGSTIHPYSMGWSRQAPGKERELVAAITWGGGSTYYADSVKGRFTISRDNAKNTVYLQMNSLKPEDTAVYYCNSYTLYWPDYDYWGQGTQVTVSS	low polyreactivity
QVQLVESGGGLVQAGGSLRLSCAASGFTLGCYAMGWYRQAPGKERELVAAITRDGSSTYYADSVKGRFTISRDNAKNTVYLQMNRLKPEDTAVYYCAAERKKKYDYWGQGTQVTVSS	high polyreactivity
QVQLVESGGGIVQAGGSLRLSCAASGLTYGKYAMGWNRPAPGKERELVAANSRRGGSTYYADSVKGRFTISRDKAKNNDYLQMNRLKPEDSAVYYFNTDTKHTGLDYWGQGTQVSVSS	high polyreactivity
QVQLVESVGGLVQAGGSLRLSCAASGLNFSYYAMGWYRQAPGKERELVAAIDWISGSTYYADSVKGRFTISRDNAKNTVYLQMNSLKPEDTAVYYCAAYGSFWYAGFGYWGQGTQVTVSS	low polyreactivity
QVQLVESGGGLVQAGGSLRLSCAASGSTFYVYAMGWYRQAPGKERELVAAIRGGGSTNYADSVKGRFTISRDNAKNTVYLQMNSLKPEDTAVYYCAKLPYTRTYLGSLYDYWGQGTQVTVSS	high polyreactivity
QVQLVESGGGLVQAGGSLRLSCAASGRIFGWYAMGWYRQAPGKERELVADIRYRGGSTYYADSVKGRFTISRDNAKNTVYLQMHSLKPEDTAVYYCAALGFVPVPYDYWGQGTQVNVSS	low polyreactivity
QVQLVESGGGLVQAGGSLRLTCAASGRTLRNYAMGWYRQPPGKERELVATITYRGGSTYYADSVKGRFTISRDNAKNTVYLKRNCLKPEDTAVYYCAARTSSYSFQYAYNYWGQGTQVTVSS	high polyreactivity
QVQLVESGGGLVQAGGSLRLTCAASGLSSLRMLWDGIDRRLGKKGSWLPLLTSGGDSTNYADSVKGRFTISRDTAKNTVYLQIISLKPEDTAVYYCAADLDYPYGYWGQGTQVTVSS	low polyreactivity
QVQLVESGGGLVQAGGSLRLSCAASGSIFDRNAMGWYRQAPGKERELVSAISRGGRTYYADSVKGRFTISRDNAKNTVYLQMNSLKPEVTAVYYCAAGYPSAWAYTTDDYWGQGTQVTVSS	low polyreactivity
QVQLVESGGGLVQAGGSLRLSCAASGSTFLVYAMGWYRQAPGKERELVAVIDNGGDTYYADSVKGRFTISRDNAKNTVYLQMNSLKPEDTEVYYCAADMSYLGYWEYDSWGQGTQVTVSS	low polyreactivity
QVQLVESGGGLVQAGGRLRLSCAASGIIFGTYAMGWYRPAPGQERELVAAINTGGTTYYADSVKGRFTISRDNAKNTVYLQMNSLKPEDTAVYYCAAEFTRYRYYYHKRPMDYWGQGTQVTVSS	low polyreactivity
QVQLVESGGGLVQAGGSLRLSCAASGSIFKWYTMGWYRQAPGKERELVAGISRGGSTYYADSVKGRFTISRDNAKNTVYLQMNSLKPEDTAVYYCAKASAIWRGDVKYYYWGQGTQVTVSS	high polyreactivity
QVQLVESGGGLVQAGGSLRLSCAASGFIFRYYAMGLYRHAPGKERELVASISSGGSTDYADSVKGRFTISRDNAKNTVYLQMNSLKPEDTAVYYCAAGYRSLSLHVGSYRYYYRGQGTQVTVSS	high polyreactivity
QVQRVESGGGLVQAGGSLRLSCAASGFTLDPYAMGWYRQAPGKEREFVAAIRLSGSSTYYADSVKGRFTISRDNAKNTVYLQMNSLKPEDTAVYYCAADGISHWLYRYDYWGQGTQVTVSS	low polyreactivity
QVQLVESGGGLVQAGGSLRLSCAASGGIFRVYAMGWYRQAPGNERELVAAINGRGTSTYYADSVKGRFTISRDNAKNTVYLQMNSLKPEDTAVYYCAASGQYHYDYWGQGTQVTVSS	high polyreactivity
QVQLVESGGGLVQAGGSLRLSCAASGSILAYNAMGWYRQAPGKERELVASITTSGGSTYYADSVKGRFTISRDNAKNTVYLQMNSLKPEDTAVYYCNAEYWLGRWLRYGYWGQGTQVTVSS	high polyreactivity

Sequence	polyreactivity (PSR sort gate)
QVQLVESGGGLVQAGGSLRLSCAASGSMFVVYAMGWYRQGPGKERELVAAISWGIGSTYYADSVKGRFTISRDNAKNTVYLQMNSLKPEDTADYYCAADTDIVLYDYWGQGTQVTVSS	low polyreactivity
QVQLVESGGCLVQAGGSLRLSCAASGSIIWYYAMGWYRQAPGKERELVAAISTGGSTYYADSVKGRFTISRDNAKNTVYLQMNSLKPEDTAVYYCAAGAFGQILNYWGQGTQVTVSS	high polyreactivity
QVQLVESGGGLVQAGGSLRLSCAASGYSFQKYGMGWYRQAPGKERELVAAITRSSGNTYYADSVKGRFTISRDTAKNTVYLQMNSLKPEDTAVYDCAAFYWGGVKYNYWGQGTQVTVSS	high polyreactivity
QVQLVESGGGLVQAGGSLRLSCAASGIIFSIYTMGRYRQAPGKERELVAAINRSGSRTYYADSVKGRFTISRDNAKNTVYLQMNSLKPEDTAVYYCAAGTGSRDYYWGQGTQVTVSS	high polyreactivity
QVQLVESGGGIVQAGGSLRLSCAASGSILGYYVMGWYRQAPGIESELVAAISWSSGSTYYADSVKGRFTISRDNAKNTVYLQMNSLIPEDTAVYFCAAPIGDVYVGKGYDSWGQGTQVTVSS	low polyreactivity
QVQLVESGGGLVQAGCSLRLSSAASGSIFDDNALGRYRPAPGTDRELVAAISDNDGSTYYADSVKGRFTISRDNAKTTVYVQMNSLKADETAVYYCAATAQEWYPAVYNQYYYWGQGTQVTVSS	low polyreactivity
QVQLVESGGGLVQAGGSLRLSCAASGSIFAYYAMGWYRQAPGKESELVADITSSGGITYYADSVKGRFTISRDNAKNTVYLQMISLKPEDTAVYYCNADSWAIGGGSYPYDYWGHGTQVTVSS	low polyreactivity
QVQLEESGAGLVQAGGSLRLSCAASGSIFVRNAMAWYRHAPGKERELVAVITRSAGRTYYADSVKGRFTISRDNAKNTVYLQMNSLKPEDTAVYYCAASPSTPNKYGSWGQGTQVTVSS	high polyreactivity
QVQLVESGGGLVQAGGSLRLSCAASGIIFAYNAMGWYRQAPGKERELVAAISVIGGTTYYADSVKGRFTISRDNAKNTVYLQMHSLKPEDTAVYYCAVDSVQYGGGYERLHELYYWGQGTQVTVSS	low polyreactivity
QVQLVESGGGLVQAGGSLRLSCAASGFIFYRYVMGWYRQAPGKERELVAAITWSGGSTYYADSVKGRFTISRDNAKNTVYLQMNSLKPEDTAVYYCAAEWWLPSFGMDYWGQGTQVTVSS	low polyreactivity
QVQLVESGGGLVQAGGSLRLSCAASGFTFYDNAMGWYRQAPGKERELVAAITSNGVNTHYADSVKGRFTISRDNAKNTVYLQMNSLKPEDTAVYYCAADRDPEVTYQKYEYWGQGTQVTVSS	low polyreactivity
QVQLVESGGGLVQAGGSLRLSCAASGSIFRKNAMGWYRQAPGKERELVATISGGGSTTYADSVKGRFTISRDNAKNTVYLQMNSLKPEDTAVYYCAARSTWFQIRYGYWGQGTQVTVSS	high polyreactivity
QVQLVESGGGLVQARGSLRLSCAASGAIFVVYTMGWYRQAPGKERELVAAITQNGGSSTYYADSVKGSFTISRDNAKNTFYLQMNSLKPDDTAVYYCNVDSFTTTFDYWGQGTQVTVSS	low polyreactivity
QVQLVESGGGLVQAGGSLRLSCAATGSIFEGYAMGWYRQAPGKERELVARITSDDDSTYYADSVKGRFTISRDNAKNSVYLQMNSLKPEDTAVYYCNADYYWTSLAMDSWGQGTQVTVSS	low polyreactivity
QVQLVESGGGLVQAGGSLRLSCAASGSTFSIYTMGWYRQAPGKERELVAAITRGGSTYYADSVKGRFTISRDNAKNTVYLQMNSLKPEDTAVYYCAADYVSYYRGGRYIELDYWGQGTQVTVSS	low polyreactivity
QVQLVETGGGLVQAGGSLRLSCAASGNTFAGNAMGWYRQAPGKERELVAAISRSGVTTRYADSVKGRFTISRDNATNTVYLQMNSLKPEDTAVYYCNADPRLRQNRDYWGQGTQVTVSS	high polyreactivity
QVQLVESGGGLVQAGGSLRLSCAATGRTFINYAMGWYRQAPGKERALVAAITTGGRTNYADSVKGRFTISRDNAKNTVYLQMNSLKPEDTAVFYCAADRYYWGRYTLNYWGQGTQVTVSS	low polyreactivity
QVQLVESGGGLVQAGGSLRLSCAASGSTFGKNAMGWYRQAPGKERELVAAISRSGGRTYYADSVKGRFTISRDNAKNTVYLQMNSLKPEDPAVYYCAREWYTAGSGDYWGQGTQVTVSS	low polyreactivity
QVQLVESGGGLVQAGGSLRLSCAASGSIFYGYAMGWYRPAPGKERELVAAITSGGRTYYADSVKGRFTISRDNAKNTVYLQMNSLKPEDTAVYYCNKLNYWSVRYEYWGQGTQVTVSS	high polyreactivity
QVQPVESGGGLVHAGGSLRLSCAASGSIFWYNAMGWYRQAPGQEWELVAAINWSGGSTFYADSVKGRFTISRDNEKNTVYLQMNSLNPEDTAVYYCAADDWSTGYDFWGQGTQETVSS	high polyreactivity
QVQLQESGGGLVQAGGSLRLSCAASGSIFHLHIMCWYRQAPGKERESVAAISNGTSTYYADSVKGRFTICRDNAKNTVYLQMNSPKPDDTAVYYCAALFLVSKHHHYWGEGTQVTVSS	low polyreactivity
